Results on one substance are retold here after publication PMC5435087.

Experiment in all cases: BLI
Data set [1] deals with ancestral dsrm1 before Rosid shift (reconstructed ancestor (plant)). As to conditions: Label-free kinetics assay (ForteBio, biotinylated RNA on streptavidin probes, biocytin block), 1x Kinetics Buffer, pH 7; temperature and salt not stated ….
Data set [2] relates to ancPlant dsrm2 H31L (reconstructed ancestor (plant)). The conditions noted are these: Label-free kinetics assay (ForteBio, biotinylated RNA on streptavidin probes, biocytin block), 1x Kinetics Buffer, pH 7; temperature and salt not stated …; scale: fold change in Kd.
For data set [3], the system named is ancPlant dsrm + dsrm2 alpha2 (reconstructed ancestor (plant)). The conditions noted are these: Label-free kinetics assay (ForteBio, biotinylated RNA on streptavidin probes, biocytin block), 1x Kinetics Buffer, pH 7; temperature and salt not stated ….
Data set [4] has as its system Eutherian PRKRA dsrm2 (reconstructed ancestor (Eutheria)). As to conditions: Label-free kinetics assay (ForteBio, biotinylated RNA on streptavidin probes, biocytin block), 1x Kinetics Buffer, pH 7; temperature and salt not stated …; scale: fold higher affinity than ancestral mammal PRKRA dsrm2.
In data set [5] the test system is ancAnimal dsrm1 (reconstructed ancestor (animal)). The conditions noted are these: steady state; initial-rate Km 4.2 uM; Label-free kinetics assay (ForteBio, biotinylated RNA on streptavidin probes, biocytin block), 1x Kinetics Buffer, pH 7; temperature and salt not stated ….
Data set [6] deals with ancAnimal dsrm (reconstructed ancestor (animal)). As to conditions: Label-free kinetics assay (ForteBio, biotinylated RNA on streptavidin probes, biocytin block), 1x Kinetics Buffer, pH 7; temperature and salt not stated ….
For data set [7], the system named is ancAnimal dsrm2 (reconstructed ancestor (animal)). The conditions noted are these: steady state; initial-rate Km 22.9 uM; Label-free kinetics assay (ForteBio, biotinylated RNA on streptavidin probes, biocytin block), 1x Kinetics Buffer, pH 7; temperature and salt not stated ….
The test system of data set [8] is ancPlant DRB4 dsrm1 (reconstructed ancestor (plant)). The conditions noted are these: steady state; initial-rate Km 38.3 uM; Label-free kinetics assay (ForteBio, biotinylated RNA on streptavidin probes, biocytin block), 1x Kinetics Buffer, pH 7; temperature and salt not stated ….
Data set [9] has as its system ancAnimal dsrm3 (reconstructed ancestor (animal)). As to conditions: steady state; initial-rate Km 4.1 uM; Label-free kinetics assay (ForteBio, biotinylated RNA on streptavidin probes, biocytin block), 1x Kinetics Buffer, pH 7; temperature and salt not stated ….
Data set [10] deals with ancAnimal dsrm + dsrm1 substitutions (reconstructed ancestor (animal)). As to conditions: Label-free kinetics assay (ForteBio, biotinylated RNA on streptavidin probes, biocytin block), 1x Kinetics Buffer, pH 7; temperature and salt not stated ….
The subject of data set [11] is ancPlant DRB6 dsrm2 (reconstructed ancestor (plant)). As to conditions: steady state; initial-rate Km 24.8 uM; Label-free kinetics assay (ForteBio, biotinylated RNA on streptavidin probes, biocytin block), 1x Kinetics Buffer, pH 7; temperature and salt not stated ….
Data set [12] relates to ancestral plant DRB4 dsrm1 (before Fabaceae shift) (reconstructed ancestor (plant)). The conditions noted are these: Label-free kinetics assay (ForteBio, biotinylated RNA on streptavidin probes, biocytin block), 1x Kinetics Buffer, pH 7; temperature and salt not stated ….
In data set [13] the test system is Rosid dsrm1 (reconstructed ancestor (Rosids)). As to conditions: Label-free kinetics assay (ForteBio, biotinylated RNA on streptavidin probes, biocytin block), 1x Kinetics Buffer, pH 7; temperature and salt not stated ….
Data set [14] relates to ancAnimal dsrm + dsrm3 substitutions (reconstructed ancestor (animal)). The conditions noted are these: Label-free kinetics assay (ForteBio, biotinylated RNA on streptavidin probes, biocytin block), 1x Kinetics Buffer, pH 7; temperature and salt not stated ….
For data set [15], the system named is ancestral plant DRB4 dsrm1 + H31 (reconstructed ancestor (plant)). As to conditions: Label-free kinetics assay (ForteBio, biotinylated RNA on streptavidin probes, biocytin block), 1x Kinetics Buffer, pH 7; temperature and salt not stated …; scale: fold higher affinity than ancestral plant DRB4 dsrm1.
Data set [16] has as its system Boreoeutherian TARBP2 dsrm1 (reconstructed ancestor (Boreoeutheria)). The conditions noted are these: Label-free kinetics assay (ForteBio, biotinylated RNA on streptavidin probes, biocytin block), 1x Kinetics Buffer, pH 7; temperature and salt not stated …; scale: fold lower affinity than ancestral TARBP2 dsrm1.
For data set [17], the system named is ancestral TARBP2 dsrm1 + QV insertion (reconstructed ancestor (mammal)). The conditions noted are these: Label-free kinetics assay (ForteBio, biotinylated RNA on streptavidin probes, biocytin block), 1x Kinetics Buffer, pH 7; temperature and salt not stated …; scale: fold lower affinity than ancestral TARBP2 dsrm1.
Data set [18] concerns ancPlant dsrm (reconstructed ancestor (plant)). The conditions noted are these: Label-free kinetics assay (ForteBio, biotinylated RNA on streptavidin probes, biocytin block), 1x Kinetics Buffer, pH 7; temperature and salt not stated ….
Data set [19] concerns ancPlant dsrm2 (reconstructed ancestor (plant)). The conditions noted are these: steady state; initial-rate Km 4.2 uM; Label-free kinetics assay (ForteBio, biotinylated RNA on streptavidin probes, biocytin block), 1x Kinetics Buffer, pH 7; temperature and salt not stated ….

As for short dsRNA, the Kd was 4.41 pKd in data set [1]; 4 µM in data set [5]; 17.2 µM in [6]; 24.6 µM in [7]; 38.9 µM in data set [8]; 3.2 µM in [9]. The Kd in data set [11] is 24.4 µM; in [12], 4.31 pKd; in data set [13] it was 4.89 pKd; in data set [18], 59.2 µM; in data set [19], 5.2 µM. Also, the binding signal in data set [2] came out at 6.6; in [4], 3.79; in data set [15] it was 8.1; in data set [16] it was 10; in [17], 10. In addition, in [3], the binding signal (fold higher affinity than ancPlant dsrm) was 9.1. The binding signal (fold higher affinity than ancAnimal dsrm) in data set [10] was found to be 3; in data set [14], 4.3.
